# Reference: US20240043508A1 (KOOKMIN UNIVERSITY INDUSTRY ACADEMY COOPERATION FOUNDATION, published 2024)
# Like-named read-outs stand apart in the source and are kept apart here.
# B1: RD3 (antibody, V domains shown)
# VH: EVQLLESGGGLVQPGGSLRLSCAASGFTFSDYAMSWVRQAPGKGLEWVSWIYSGSGNKYYADSVKGRFTISRDNSKNTLYLQMNSLRAEDTAVYYCARFPIARTSNSQSSYDGMDVWGQGTLVTVSS
# VL: QSVLTQPPSASGTPGQRVTISCSGSSSNIGSNAVSWYQQLPGTAPKLLIYADNKRPSGVPDRFSGSKSGTSASLAISGLRSEDEADYYCGAWDSSLNAYVFGGGTKLTVL
# notes: also called K102.1
# B2: HA-tagged K102.2 (K102.2-HA) (antibody, V domains shown)
# VH: EVQLLESGGGLVQPGGSLRLSCAASGFTFSSYDMSWVRQAPGKGLEWVSGISYSGGSTYYADSVKGRFTISRDNSKNTLYLQMNSLRAEDTAVYYCARDVNFVPLVTFDYWGQGTLVTVSS
# VL: QSVLTQPPSASGTPGQRVTLSCTGSSSNIGSNSVTWYQQLPGTAPKLLIYDDNQRPSGVPDRFSGSKSGTSASLAISGLRSEDEADYYCGTWDYSLSAYVFGGGTKLTVL
# B3: RG6 (antibody, V domains shown)
# VH: EVQLLESGGGLVQPGGSLRLSCAASGFTFSDYSMSWVRQAPGKGLEWVSGIYHSDGSKYYADSVKGRFTISRDNSKNTLYLQMNSLRAEDTAVYYCARFDPVFDYWGQGTLVTVSS
# VL: QSVLTQPPSASGTPGQRVTISCTGSSSNIGSNAVNWYQQLPGTAPKLLIYADSNRPSGVPDRFSGSKSGTSASLAISGLRSEDEADYYCGAWDASLSAYVFGGGTKLTVL
# B4: RB4 (antibody, V domains shown)
# VH: EVQLLESGGGLVQPGGSLRLSCAASGFTFSDYSMSWVRQAPGKGLEWVSGIYHSDGSKYYADSVKGRFTISRDNSKNTLYLQMNSLRAEDTAVYYCARFDPVFDYWGQGTLVTVSS
# VL: QSVLTQPPSASGTPGQRVTISCSGSSSNIGSNAVSWYQQLPGTAPKLLIYDNNHRPSGVPDRFSGSKSGTSASLAISGLRSEDEADYYCGSWDDSLNAYVFGGGTKLTVL
# B5: RB6 (antibody, V domains shown)
# VH: EVQLLESGGGLVQPGGSLRLSCAASGFTFSSYDMSWVRQAPGKGLEWVSGISYSGGSTYYADSVKGRFTISRDNSKNTLYLQMNSLRAEDTAVYYCARDVNFVPLVTFDYWGQGTLVTVSS
# VL: QSVLTQPPSASGTPGQRVTLSCTGSSSNIGSNSVTWYQQLPGTAPKLLIYDDNQRPSGVPDRFSGSKSGTSASLAISGLRSEDEADYYCGTWDYSLSAYVFGGGTKLTVL
# notes: also called K102.2
# B6: RD10 (antibody, V domains shown)
# VH: EVQLLESGGGLVQPGGSLRLSCAASGFTFSDYAMSWVRQAPGKGLEWVSAIYPGGGSTYYADSVKGRFTISRDNSKNTLYLQMNSLRAEDTAVYYCARNLFGFDYWGQGTLVTVSS
# VL: QSVLTQPPSASGTPGQRVTISCTGSSSNIGSNAVYWYQQLPGTAPKLLIYDDSNRPSGVPDRFSGSKSGTSASLAISGLRSEDEADYYCGSWDDSLSAYVFGGGTKLTVL
# Columns and labels:
# [1] = biological target: T1, SARS-CoV-2 S protein of the wild-type, on pseudotyped lentiviral particles (SARS-CoV-2); test: cell-based or functional assay
# [2] = biological target: SARS-CoV RBD (SARS-CoV, UniProt P59594 306-527); test: ELISA, 0.1 ug antigen coated
# [3] = biological target: T1, SARS-CoV-2 S protein of the wild-type, …; test: cell-based or functional assay; remark: listed apart in the source
# [4] = biological target: T2, SARS-CoV-2 RBD (wild-type) (SARS-CoV-2, UniProt P0DTC2 319-541)
# [5] = biological target: T2, SARS-CoV-2 RBD (wild-type); remark: listed apart in the source
# [6] = biological target: SARS-CoV-2 S1 domain (SARS-CoV-2, UniProt P0DTC2 14-685); test: ELISA: IgG titrated on plate-bound S1, absorbance at 450 nm
# [7] = biological target: SARS-CoV-2 RBD protein (Fc-tagged) (SARS-CoV-2, UniProt P0DTC2 319-541)
# [8] = biological target: T2, SARS-CoV-2 RBD (wild-type); test: SPR (FIG. 24)
# [9] = biological target: T2, SARS-CoV-2 RBD (wild-type); test: SPR, RBD immobilised, 1:1 model
# [10] = biological target: T2, SARS-CoV-2 RBD (wild-type); test: competition ELISA: RBD-His with antibody, binding to coated hACE2-Fc
# [11] = biological target: T2, SARS-CoV-2 RBD (wild-type); test: SPR, RBD immobilised
# [12] = biological target: T2, SARS-CoV-2 RBD (wild-type); test: ELISA, antigen coated, antibody titrated, A450
Binder,binding result [2],Kd [5],Kd [6],IC50 [7],also measured
B1,binds,–,–,–,"IC50 (nM), pseudovirus neutralization, luciferase in 293T/hACE2 cells [1]: 1.94 nM; IC50 (nM), pseudotyped virus infection [3]: 1.94 nM"
B2,–,–,–,–,EC50 (read off the curve) [4]: ~0.05 µg/mL
B3,–,0.481 nM,0.22 nM,–,–
B4,–,0.186 nM,0.169 nM,0.841 nM,–
B5,binds,0.716 nM,3.2 nM,1.95 nM,Kd [8]: 2.46 nM; fold affinity against K102.3 [8]: ~5 fold; Kd [9]: 2.2 nM; kon [9]: 197000 M⁻¹ s⁻¹; IC50 [10]: 4.94 nM; Kd [11]: 2.2 nM; kon [11]: 197000 M⁻¹ s⁻¹
B6,–,0.55 nM,0.317 nM,1.97 nM,Kd [12]: ~0.1 nM
